Experimental data as given in PMC6206164, “Fibroblast Growth Factor Binding Protein 3 (FGFBP3) impacts carbohydrate and lipid metabolism” (Scientific Reports, 2018).

B1: MBP-tagged human recombinant BP3 devoid of its signal peptide (natural protein, UniProt Q8TAT2 27-258, looked up)
chain: RREKGAASNVAEPVPGPTGGSSGRFLSPEQHACSWQLLLPAPEAAAGSELALRCQSPDGARHQCAYRGHPERCAAYAARRAHFWKQVLGGLRKKRRPCHDPAPLQARLCAGKKGHGAELRLVPRASPPARPTVAGFAGESKPRARNRGRTRERASGPAAGTPPPQSAPPKENPSERKTNEGKRKAALVPNEERPMGTGPDPDGLDGNAELTETYCAEKWHSLCNFFVNFWNG
notes: also called FGFBP3
B2: Recombinant human FGF21 (ligand, UniProt Q9NSA1 29-209, looked up)
chain: HPIPDSSPLLQFGGQVRQRYLYTDDAQQTEAHLEIREDGTVGGAADQSPESLLQLKALKPGVIQILGVKTSRFLCQRPDGALYGSLHFDPEACSFRELLLEDGYNVYQSEAHGLPLHLPGNKSPHRDPAPRGPARFLPLPGLPPALPEPPGILAPQPPDVGSSDPLSMVGPSQGRSPSYAS
notes: Fibroblast growth factor 21 (FGF21), human, recombinant; source: bought: R&D Systems

How the values were obtained:
[1] = biological target: T1, Human recombinant FGFR4 Fc Chimera (human, UniProt P22455 22-369); test: binding to plate-coated receptor detected by western blot; cell-free; FGFR4 Fc chimera coated on MaxiSorp plates; FGF19 (2 μg/ml) ± BP3 or MBP control (1 μg/ml), 2 h room temperature; bound proteins blotted with anti-FGFR4, anti-MBP, anti-FGF19; conditions: both partners purified
T1 construct: Fibroblast growth factor receptor 4 (FGFR4), human, as Fc chimera; Commercial Fc chimeras of this kind hold the extracellular domain; source: bought: R&D Systems

[2] = biological target: B1; test: ELISA; competitive binding; increasing excess of KLB or KLa bound to immobilised FGF19 or FGF21 (2.5 μg/ml) for 1 h before BP3 or MBP control (0.15 μg/ml); MaxiSorp plates; conditions: both partners purified

binding result [1] | binding result [2] | Binder
binds | – | B1
– | binds | B2
